The text below walks through data of publication PMC7385628, “Molecular determinants for dsDNA translocation by the transcription-repair coupling and evolvability factor Mfd”.

In data set [1] the target is T1, Mfd wild type (Escherichia coli, UniProt P30958 1-1148). Nature of the data set: fluorescence anisotropy. The conditions noted are these: 10 nM labeled DNA, 2 mM nucleotide (ADP-AlFx from ADP, 10 mM NaF, 2 mM AlCl3), buffer, pH and temperature not in the material. ….
For data set [2], the system named is Mfd D7-AAA;H842A (Escherichia coli). As to the kind of experiment: fluorescence anisotropy. The note with it: 10 nM labeled DNA, 2 mM nucleotide (ADP-AlFx from ADP, 10 mM NaF, 2 mM AlCl3), buffer, pH and temperature not in the material. ….
Data set [3] deals with T1, Mfd wild type. As to the kind of experiment: cryo-EM structure (5.5 A); 2 mM ADP, 10 mM NaF, 1 mM AlCl3, Mg2+; Fluorescence anisotropy, 10 nM labeled DNA, 2 mM nucleotide (ADP-AlFx from ADP, 10 mM NaF, 2 mM AlCl3); buffer, pH and temperature not in the material. Cryo-EM: Mfd in 20 mM Tris-HCl pH 8, 100 mM NaCl, 20 mM MgCl2, 2 mM TCEP. The conditions noted are these: protein: recombinant; tags: N-terminal His tag, cleaved with PreScission; blunt. Background: Polarisation of emitted light reports the rotation of a fluorescent probe.

T1 sequence (P30958 whole entry): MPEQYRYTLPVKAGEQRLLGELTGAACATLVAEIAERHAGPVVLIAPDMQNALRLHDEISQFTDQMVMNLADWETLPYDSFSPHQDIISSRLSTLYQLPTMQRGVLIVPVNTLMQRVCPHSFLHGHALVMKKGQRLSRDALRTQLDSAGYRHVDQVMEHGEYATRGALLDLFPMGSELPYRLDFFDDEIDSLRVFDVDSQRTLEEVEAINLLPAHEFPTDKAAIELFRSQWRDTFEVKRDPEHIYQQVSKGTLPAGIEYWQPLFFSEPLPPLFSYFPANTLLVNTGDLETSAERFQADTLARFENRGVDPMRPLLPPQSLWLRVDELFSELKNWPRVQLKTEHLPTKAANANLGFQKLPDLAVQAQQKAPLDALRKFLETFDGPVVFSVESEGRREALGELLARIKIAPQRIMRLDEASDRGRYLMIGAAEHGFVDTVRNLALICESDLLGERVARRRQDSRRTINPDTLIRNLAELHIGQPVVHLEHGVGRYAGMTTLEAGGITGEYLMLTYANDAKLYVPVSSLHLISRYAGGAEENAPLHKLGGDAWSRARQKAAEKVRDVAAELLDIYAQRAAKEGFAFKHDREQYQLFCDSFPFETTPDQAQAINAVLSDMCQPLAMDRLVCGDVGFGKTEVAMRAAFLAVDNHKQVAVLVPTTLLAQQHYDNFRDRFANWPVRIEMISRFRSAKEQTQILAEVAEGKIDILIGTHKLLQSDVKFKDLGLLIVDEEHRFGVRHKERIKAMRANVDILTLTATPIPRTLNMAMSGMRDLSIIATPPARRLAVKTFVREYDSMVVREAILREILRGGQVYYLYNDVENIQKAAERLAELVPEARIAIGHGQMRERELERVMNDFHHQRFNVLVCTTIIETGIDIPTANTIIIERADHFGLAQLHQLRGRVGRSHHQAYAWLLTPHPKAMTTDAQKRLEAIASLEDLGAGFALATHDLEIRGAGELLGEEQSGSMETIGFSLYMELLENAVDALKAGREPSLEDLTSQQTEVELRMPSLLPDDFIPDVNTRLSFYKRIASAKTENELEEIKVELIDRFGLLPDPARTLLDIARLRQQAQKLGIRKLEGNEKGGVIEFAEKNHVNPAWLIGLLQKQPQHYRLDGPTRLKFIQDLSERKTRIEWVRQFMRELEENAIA

In the case of HEX-labeled 40mer dsDNA, the Kd (usually the free concentration of one partner at which half of the binding sites on the other are occupied at equilibrium, for simple one-to-one binding) was determined as 24 nM in the data set with Mfd wild type [1] (2 mM ADP-AlFx), 151 nM with Mfd wild type [1] (2 mM ATPgS), 127 nM in data set [2] and 927 nM in data set [2] (2 mM ATPgS).

B1: 21mer dsDNA (cryo-EM) (dsDNA)
DNA 1: ATAGGATACTTACAGCCATCG
DNA 2: CGATGGCTGTAAGTATCCTAT
For the molecule B1, in the data set with Mfd wild type [3], the binding result was “binds”.
